{
  "source": "paper doi:10.1101/2020.01.17.910273",
  "about": "“Ribosome association primes the stringent factor Rel for recruitment of deacylated tRNA to ribosomal A-site”",
  "assay_in_all_cases": "EMSA; EMSA: HEPES:Polymix buffer, 5 mM Mg2+, 0.1 uM tRNA or mRNA(MVF), with or without 1 uM mRNA(MVF) competitor, 5 min at 37 C; pH not in material",
  "conditions_in_all_cases": "protein: recombinant; single strand",
  "key": {"Rel": {"molecular_target": "Rel (Bacillus subtilis, UniProt O54408 1-734)", "sequence (O54408 whole entry)": "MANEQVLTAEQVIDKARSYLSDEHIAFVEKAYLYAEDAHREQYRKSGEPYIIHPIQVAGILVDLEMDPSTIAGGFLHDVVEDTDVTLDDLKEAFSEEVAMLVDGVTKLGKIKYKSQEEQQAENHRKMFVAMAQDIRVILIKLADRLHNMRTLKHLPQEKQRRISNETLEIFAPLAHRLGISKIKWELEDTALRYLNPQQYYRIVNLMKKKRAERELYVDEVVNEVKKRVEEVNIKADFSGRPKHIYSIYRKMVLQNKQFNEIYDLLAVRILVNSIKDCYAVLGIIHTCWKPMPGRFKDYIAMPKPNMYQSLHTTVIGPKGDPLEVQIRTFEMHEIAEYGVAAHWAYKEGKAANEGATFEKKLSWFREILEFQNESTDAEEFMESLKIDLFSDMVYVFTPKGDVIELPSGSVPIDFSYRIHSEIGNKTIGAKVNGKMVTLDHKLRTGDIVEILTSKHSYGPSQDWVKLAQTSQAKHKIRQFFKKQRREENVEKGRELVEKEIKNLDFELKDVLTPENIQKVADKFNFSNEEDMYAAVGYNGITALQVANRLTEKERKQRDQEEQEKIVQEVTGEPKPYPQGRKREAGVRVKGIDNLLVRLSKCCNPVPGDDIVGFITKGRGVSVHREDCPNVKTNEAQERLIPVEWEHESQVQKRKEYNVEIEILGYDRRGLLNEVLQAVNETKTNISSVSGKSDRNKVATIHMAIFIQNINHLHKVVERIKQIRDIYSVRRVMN"}, "Rel NTD": {"molecular_target": "Rel NTD (Bacillus subtilis, UniProt O54408 1-373)", "sequence (O54408 1-373)": "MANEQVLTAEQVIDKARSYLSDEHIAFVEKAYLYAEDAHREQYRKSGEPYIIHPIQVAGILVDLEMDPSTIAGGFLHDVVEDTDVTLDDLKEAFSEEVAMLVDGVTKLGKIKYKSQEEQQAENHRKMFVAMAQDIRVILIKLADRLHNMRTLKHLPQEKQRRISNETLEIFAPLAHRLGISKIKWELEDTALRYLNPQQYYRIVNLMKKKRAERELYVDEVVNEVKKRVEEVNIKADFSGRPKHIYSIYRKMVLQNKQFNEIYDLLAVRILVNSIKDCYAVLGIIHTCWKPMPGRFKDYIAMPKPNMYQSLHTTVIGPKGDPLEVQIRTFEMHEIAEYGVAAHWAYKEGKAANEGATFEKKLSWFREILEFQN"}, "Rel TGS-Helical": {"molecular_target": "Rel TGS-Helical (Bacillus subtilis, UniProt O54408 374-583)", "sequence (O54408 374-583)": "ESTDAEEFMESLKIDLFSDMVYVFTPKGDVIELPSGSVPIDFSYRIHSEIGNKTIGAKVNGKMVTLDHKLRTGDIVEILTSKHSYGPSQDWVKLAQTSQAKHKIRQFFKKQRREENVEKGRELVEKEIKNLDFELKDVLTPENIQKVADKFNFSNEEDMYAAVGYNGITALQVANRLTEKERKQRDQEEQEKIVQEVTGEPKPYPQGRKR"}},
  "data": [
    {"binder": "GGCAAGGAGGAGAUAAGAAUGGUUUUCUAAUA (ssRNA)", "note": "[mRNA(MVF)]", "values": [
      {"measurement": "apparent K (half saturation)", "setting": "Rel", "result": "490 ± 10", "unit": "nM"},
      {"measurement": "apparent K (half saturation)", "setting": "Rel NTD", "result": "680 ± 30", "unit": "nM"},
      {"measurement": "binding result", "setting": "Rel TGS-Helical", "result": "no binding"}
    ]}
  ]
}
